B1: p67^phox(1–212) [not stated] / Nox2 peptide 24 (357–371), dithiol form [modified: biotin on the N-terminus; C-terminal amide; cysteines 369 and 371 in the dithiol form; biotin on the N-terminus; C-terminal … (parent)
chain 1: MSLVEAISLWNEGVLAADKKDWKGALDAFSAVQDPHSRICFNIGCMYTILKNMTEAEKAFTRSINRDKHLAVAYFQRGMLYYQTEKYDLAIKDLKEALIQLRGNQLIDYKILGLQFKLFACEVLYNIAFMYAKKEEWKKAEEQLALATSMKSEPRHSKIDKAMECVWKQKLYEPVVIPVGKLFRPNERQVAQLAKKDYLGKATVVASVVDQD
chain 2: SGSGIVGDWTEGLFNACGC

Variants of: B1
Assay: peptide-protein binding assay (surface-attached biotinylated peptide, protein in solution, kinetic TMB oxidation read-out)
Conditions: with Nox2 peptide 24 (357–371), 10 min kinetic experiment, read off a plot
For chain 1 C40S C45S C121S C165S, the response (Absorbance (650 nm) x 1000/min) was 10.

From PMC4316792, “The dehydrogenase region of the NADPH oxidase component Nox2 acts as a protein disulfide isomerase (PDI) resembling PDIA3 with a role in the binding of the activator protein p67^phox” (Frontiers in Chemistry, 2015)
